Experimental data from publication PMC3170469.

Key:
[1] = molecular target: hydrogen peroxide treated recombinant human interferon beta-1a (human) (UniProt P01574); assay: SEC
[2] = molecular target: metal-catalyzed oxidized recombinant human interferon beta-1a (human) (UniProt P01574); assay: SEC

Row | oligomer fraction (%) [1] | oligomer fraction (%) [2] | Substance
1 | 7% |  | hydrogen peroxide treated recombinant human interferon beta-1a (from UniProt P01574 22-187) (natural protein)
2 |  | 68% | metal-catalyzed oxidized recombinant human interferon beta-1a (from UniProt P01574 22-187) (natural protein)
